Measured values reported in US20170015742A1 (published 2017).

B1: CODV015 (bispecific antibody, human IgG1, kappa, L234A L235A)
heavy: EVQLVQSGSELKKPGASVKVSCKASGYTFTNYGMYWVRQAPGQGLEWMGWINTETGKPTYADDFKGRFVFSLDTSVSTAYLQISSLKAEDTAVYYCARTNYYYRSYIFYFDYWGQGTMVTVSSGGGGSGGGEFVLTQSPGTLSLSPGERATLSCERSSGDIGDSYVSWYQQKPGQAPRLVIYADDQRPSGIPDRFSGSGSGTDFTLTISRLEPEDFAVYYCQSYDINIDIVFGGGTKVEIKGGGSGASTKGPSVFPLAPSSKSTSGGTAALGCLVKDYFPEPVTVSWNSGALTSGVHTFPAVLQSSGLYSLSSVVTVPSSSLGTQTYICNVNHKPSNTKVDKKVEPKSCDKTHTCPPCPAPEAAGGPSVFLFPPKPKDTLMISRTPEVTCVVVDVSHEDPEVKFNWYVDGVEVHNAKTKPREEQYNSTYRVVSVLTVLHQDWLNGKEYKCKVSNKALPAPIEKTISKAKGQPREPQVYTLPPSREEMTKNQVSLTCLVKGFYPSDIAVEWESNGQPENNYKTTPPVLDSDGSFFLYSKLTVDKSRWQQGNVFSCSVMHEALHNAYTQKSLSLSPGK
light: EVTLRESGPALVKPTQTLTLTCTFSGFSLSTYGMGVGWIRQPPGKALEWLANIWWDDDKYYNPSLKNRLTISKDTSKNQVVLTMTNMDPVDTATYYCARIESIGTTYSFDYWGQGTMVTVSSGGGGSGGGDTVLTQSPATLSLSPGERATLSCRASESVSTHMHWYQQKPGQAPRLLIYGASNLESGVPARFSGSGSGTDFTLTISSLEPEDFAVYFCQQSWNDPFTFGQGTKLEIKGGSRTVAAPSVFIFPPSDEQLKSGTASVVCLLNNFYPREAKVQWKVDNALQSGNSQESVTEQDSKDSTYSLSSTLTLSKADYEKHKVYACEVTHQGLSSPVTKSFNRGEC
notes: Anti-human VEGF-A/anti-human PDGF-BB cross-over DVD-Ig (CO-DVD-Ig); also called PR-1571827
B2: CODV021 (bispecific antibody, human IgG1, kappa, L234A L235A)
heavy: EVQLVQSGSELKKPGASVKVSCKASGYTFTNYGMYWVRQAPGQGLEWMGWINTETGKPTYADDFKGRFVFSLDTSVSTAYLQISSLKAEDTAVYYCARTNYYYRSYIFYFDYWGQGTMVTVSSGGGGSGGGEFVLTQSPGTLSLSPGERATLSCERSSGDIGESYVSWYQQKPGQAPRLVIYADDQRPSGIPDRFSGSGSGTDFTLTISRLEPEDFAVYYCQSYDINIDIVFGGGTKVEIKGGGSGASTKGPSVFPLAPSSKSTSGGTAALGCLVKDYFPEPVTVSWNSGALTSGVHTFPAVLQSSGLYSLSSVVTVPSSSLGTQTYICNVNHKPSNTKVDKKVEPKSCDKTHTCPPCPAPEAAGGPSVFLFPPKPKDTLMISRTPEVTCVVVDVSHEDPEVKFNWYVDGVEVHNAKTKPREEQYNSTYRVVSVLTVLHQDWLNGKEYKCKVSNKALPAPIEKTISKAKGQPREPQVYTLPPSREEMTKNQVSLTCLVKGFYPSDIAVEWESNGQPENNYKTTPPVLDSDGSFFLYSKLTVDKSRWQQGNVFSCSVMHEALHNAYTQKSLSLSPGK
light: EVTLRESGPALVKPTQTLTLTCTFSGFSLSTYGMGVGWIRQPPGKALEWLANIWWDDDKYYNPSLKNRLTISKDTSKNQVVLTMTNMDPVDTATYYCARIESIGTTYSFDYWGQGTMVTVSSGGGGSGGGDTVLTQSPATLSLSPGERATLSCRASESVSTHMHWYQQKPGQAPRLLIYGASNLESGVPARFSGSGSGTDFTLTISSLEPEDFAVYFCQQSWNDPFTFGQGTKLEIKGGSRTVAAPSVFIFPPSDEQLKSGTASVVCLLNNFYPREAKVQWKVDNALQSGNSQESVTEQDSKDSTYSLSSTLTLSKADYEKHKVYACEVTHQGLSSPVTKSFNRGEC
notes: Anti-human VEGF-A/anti-human PDGF-BB cross-over DVD-Ig (CO-DVD-Ig); also called PR-1577053
B3: CODV010 (bispecific antibody, human IgG1, kappa, L234A L235A)
heavy: EVTLRESGPALVKPTQTLTLTCTFSGFSLSTYGMGVGWIRQPPGKALEWLANIWWDDDKYYNPSLKNRLTISKDTSKNQVVLTMTNMDPVDTATYYCARIESIGTTYSFDYWGQGTMVTVSSGEVQLVQSGSELKKPGASVKVSCKASGYTFTNYGMYWVRQAPGQGLEWMGWINTETGKPTYADDFKGRFVFSLDTSVSTAYLQISSLKAEDTAVYYCARTNYYYRSYIFYFDYWGQGTMVTVSSGGASTKGPSVFPLAPSSKSTSGGTAALGCLVKDYFPEPVTVSWNSGALTSGVHTFPAVLQSSGLYSLSSVVTVPSSSLGTQTYICNVNHKPSNTKVDKKVEPKSCDKTHTCPPCPAPEAAGGPSVFLFPPKPKDTLMISRTPEVTCVVVDVSHEDPEVKFNWYVDGVEVHNAKTKPREEQYNSTYRVVSVLTVLHQDWLNGKEYKCKVSNKALPAPIEKTISKAKGQPREPQVYTLPPSREEMTKNQVSLTCLVKGFYPSDIAVEWESNGQPENNYKTTPPVLDSDGSFFLYSKLTVDKSRWQQGNVFSCSVMHEALHNAYTQKSLSLSPGK
light: DTVLTQSPATLSLSPGERATLSCRASESVSTHMHWYQQKPGQAPRLLIYGASNLESGVPARFSGSGSGTDFTLTISSLEPEDFAVYFCQQSWNDPFTFGQGTKLEIKGGGSGGGEFVLTQSPGTLSLSPGERATLSCERSSGDIGDSYVSWYQQKPGQAPRLVIYADDQRPSGIPDRFSGSGSGTDFTLTISRLEPEDFAVYYCQSYDINIDIVFGGGTKVEIKGGGSGRTVAAPSVFIFPPSDEQLKSGTASVVCLLNNFYPREAKVQWKVDNALQSGNSQESVTEQDSKDSTYSLSSTLTLSKADYEKHKVYACEVTHQGLSSPVTKSFNRGEC
notes: Anti-human VEGF-A/anti-human PDGF-BB cross-over DVD-Ig (CO-DVD-Ig); also called PR-1571823

Tests used:
Human PDGF-BB = molecular target: T1, Human PDGF-BB (human, UniProt P01127 82-190); experiment: SPR (Biacore), method of Example 1.1
T1 construct: also called hPDGF-BB
T1 sequence (P01127 82-190 limits assumed): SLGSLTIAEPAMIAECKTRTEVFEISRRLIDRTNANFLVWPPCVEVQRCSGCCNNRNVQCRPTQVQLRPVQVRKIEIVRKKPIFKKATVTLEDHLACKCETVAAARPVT
Procedure: (§1) Unreacted moieties on the biosensor surface were blocked with ethanolamine. For kinetic analysis, rate equations derived from the 1:1 Langmuir binding model were fitted simultaneously to multiple antigen injections (using global fit analysis) with the use of Scrubber 2 (BioLogic Software), Biacore Biaevaluation 4.0.1 software or Biacore T100 Evaluation software. Purified antibodies or DVD-Ig molecules were diluted in running buffer for capture across goat anti-human Fc reaction surfaces. Antibodies or DVD-Ig molecules to be captured as a ligand (1 μg/ml) were injected over reaction matrices at a flow rate of 10 μl/minute. During the assay, all measurements were referenced against the capture surface alone (i.e., with no captured antibody or DVD-Ig molecule). […] The equilibrium dissociation constant KD (M) of the reaction between antibodies and the target antigen was then calculated from the kinetic rate constants by the following formula: KD=Koff/Kₒₙ. Binding was recorded as a function of time and kinetic rate constants were calculated. In this assay, on-rates as fast as 10⁶M⁻¹s⁻¹ and off-rates as slow as 10⁻⁶ s⁻¹ could be measured.

Human VEGF-A 165 = molecular target: T2, Human VEGF-A 165 (human, UniProt P15692 207-395); experiment: SPR (Biacore), method of Example 1.1
T2 construct: also called hVEGF165
T2 sequence (P15692 other isoform, or with tags, fused parts or gaps limits assumed): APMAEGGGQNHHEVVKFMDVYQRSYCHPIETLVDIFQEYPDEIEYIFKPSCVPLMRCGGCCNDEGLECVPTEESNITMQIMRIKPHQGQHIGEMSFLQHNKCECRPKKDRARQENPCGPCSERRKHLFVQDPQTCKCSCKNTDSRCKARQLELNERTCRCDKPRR
Procedure: as §1

Binder	Kd (Human PDGF-BB)	kon (Human PDGF-BB)	Kd (Human VEGF-A 165)	kon (Human VEGF-A 165)
B1	0.0013 nM	7e+07 M⁻¹ s⁻¹	0.024 nM	2.7e+06 M⁻¹ s⁻¹
B2	0.0019 nM	6.1e+07 M⁻¹ s⁻¹	0.018 nM	3.8e+06 M⁻¹ s⁻¹
B3	0.004 nM	4.1e+07 M⁻¹ s⁻¹	6.6 nM	57000 M⁻¹ s⁻¹
